Bridge positions count the residues as written; N and C are the ends. Square brackets hold non-standard residues; d marks the D form. Ends that are not written are not given here. * marks the point of attachment. Abu(4-SO3H) = N[C@@H](CCS(=O)(=O)O)C(=O)O; PhLac = O=C(O)[C@@H](O)Cc1ccccc1; Carboxymethyl = O=C(O)C*; NSG‑1 = not defined here; NSG‑2 = not defined here

The target of assay [1] is T1, glucagon receptor (UniProt P47871 26-477, limits assumed).
T1 construct: whole, on cells; also called GR; Glucagon
T1 sequence (P47871 26-477 limits assumed): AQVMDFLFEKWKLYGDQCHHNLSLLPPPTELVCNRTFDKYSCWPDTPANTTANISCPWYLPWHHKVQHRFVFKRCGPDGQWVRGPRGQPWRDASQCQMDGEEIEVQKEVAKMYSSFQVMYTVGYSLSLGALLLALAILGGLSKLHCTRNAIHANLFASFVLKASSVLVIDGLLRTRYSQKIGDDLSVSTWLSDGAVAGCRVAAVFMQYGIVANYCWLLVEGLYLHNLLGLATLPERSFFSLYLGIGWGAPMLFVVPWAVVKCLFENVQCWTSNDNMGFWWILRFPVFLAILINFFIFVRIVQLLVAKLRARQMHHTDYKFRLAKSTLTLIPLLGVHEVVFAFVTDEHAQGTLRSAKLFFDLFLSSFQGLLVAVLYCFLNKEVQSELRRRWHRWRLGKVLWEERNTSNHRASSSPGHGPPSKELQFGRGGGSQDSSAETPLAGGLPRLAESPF
Kind of assay: assay not named in Table F; taken as receptor binding.

Assay [2] concerns the target T1, glucagon receptor. Kind of assay: cell-based or functional assay.
The target in assay [3] is T1, glucagon receptor. Kind of assay: receptor binding, method not described.
Assay [4] addresses T1, glucagon receptor. Kind of assay: cell-based or functional assay. This is another data set of the same source.
Assay [5] deals with T1, glucagon receptor. Put plainly: column IC50(nM) beside the cAMP columns of Table H; taken as receptor binding.
Assay [6] addresses T1, glucagon receptor. Put plainly: cell-based or functional assay. The source holds these as a separate data set.
Assay [7] concerns the target T1, glucagon receptor. Kind of assay: receptor binding, method not described. This is another data set of the same source.
Assay [8] concerns the target T1, glucagon receptor. Put plainly: cell-based or functional assay. The source holds these as a separate data set.

SQGTFTS[NSG‑2]YSKYLDSRRAQDFVQWLMNT-NH2 (reading uncertain, also called peptide no) [[(NSG-2)^9]Glucagon(aa2-29)-NH2]: in assay [1], the IC50 amounted to 2350 nM.

B1: [(CSA-1)^9]Glucagon(aa2-29)-NH2 (peptide)
peptide: SQGTFTSC(Carboxymethyl)YSKYLDSRRAQDFVQWLMNT-NH2
modifications: N-terminus assumed
SMILES: CSCC[C@H](NC(=O)[C@H](CC(C)C)NC(=O)[C@H](Cc1c[nH]c2ccccc12)NC(=O)[C@H](CCC(N)=O)NC(=O)[C@@H](NC(=O)[C@H](Cc1ccccc1)NC(=O)[C@H](CC(=O)O)NC(=O)[C@H](CCC(N)=O)NC(=O)[C@H](C)NC(=O)[C@H](CCCNC(=N)N)NC(=O)[C@H](CCCNC(=N)N)NC(=O)[C@H](CO)NC(=O)[C@H](CC(=O)O)NC(=O)[C@H](CC(C)C)NC(=O)[C@H](Cc1ccc(O)cc1)NC(=O)[C@H](CCCCN)NC(=O)[C@H](CO)NC(=O)[C@H](Cc1ccc(O)cc1)NC(=O)[C@H](CSCC(=O)O)NC(=O)[C@H](CO)NC(=O)[C@@H](NC(=O)[C@H](Cc1ccccc1)NC(=O)[C@@H](NC(=O)CNC(=O)[C@H](CCC(N)=O)NC(=O)[C@@H](N)CO)[C@@H](C)O)[C@@H](C)O)C(C)C)C(=O)N[C@@H](CC(N)=O)C(=O)N[C@H](C(N)=O)[C@@H](C)O
notes: also called peptide no
In assay [1], B1 returned an IC50 of 12.7 nM.

B2: [(CSA-2)^9]Glucagon(aa2-29)-NH2 (peptide)
peptide: SQGTFTSCYSKYLDSRRAQDFVQWLMNT
HELM: PEPTIDE1{S.Q.G.T.F.T.S.[O=C(O)CCSC[C@H](N[*:1])C(=O)[*:2]].Y.S.K.Y.L.D.S.R.R.A.Q.D.F.V.Q.W.L.M.N.T.[am]}$$$$V2.0; N-terminus assumed
SMILES: CSCC[C@H](NC(=O)[C@H](CC(C)C)NC(=O)[C@H](Cc1c[nH]c2ccccc12)NC(=O)[C@H](CCC(N)=O)NC(=O)[C@@H](NC(=O)[C@H](Cc1ccccc1)NC(=O)[C@H](CC(=O)O)NC(=O)[C@H](CCC(N)=O)NC(=O)[C@H](C)NC(=O)[C@H](CCCNC(=N)N)NC(=O)[C@H](CCCNC(=N)N)NC(=O)[C@H](CO)NC(=O)[C@H](CC(=O)O)NC(=O)[C@H](CC(C)C)NC(=O)[C@H](Cc1ccc(O)cc1)NC(=O)[C@H](CCCCN)NC(=O)[C@H](CO)NC(=O)[C@H](Cc1ccc(O)cc1)NC(=O)[C@H](CSCCC(=O)O)NC(=O)[C@H](CO)NC(=O)[C@@H](NC(=O)[C@H](Cc1ccccc1)NC(=O)[C@@H](NC(=O)CNC(=O)[C@H](CCC(N)=O)NC(=O)[C@@H](N)CO)[C@@H](C)O)[C@@H](C)O)C(C)C)C(=O)N[C@@H](CC(N)=O)C(=O)N[C@H](C(N)=O)[C@@H](C)O
notes: also called peptide no
On to B2, for which, in assay [1], the IC50 was found to be 13.3 nM.
In the case of AEGTFTSEYSKYLDERRAKDFVQWLMDT (lactam 15-19) [[A2E3, E16K20(Lactam),D28]G(2~29)], the “Glucagon IC50” value in assay [2] was 63 nM.
In turn, XTSDYSKYLDSRRAQDFVQWLMDT (PLA at position 6, N-terminal to residues 7-29; C-terminal amide) [[PLA6, D9, D28]Glucagon(aa6-29)-NH2] showed an IC50 in assay [3] of 9 nM. Besides, the “IC50(nM) (cAMP, inhibit Glucagon) 0.1 nM or 0.2 nM” value in assay [4] was determined as 1.32 nM.

B3: [PLA6, D9]Glucagon(aa6-29)-COOH (peptide)
peptide: XTSDYSKYLDSRRAQDFVQWLMNT
HELM: PEPTIDE1{[O=C([C@@H](O)Cc1ccccc1)[*:2]].T.S.D.Y.S.K.Y.L.D.S.R.R.A.Q.D.F.V.Q.W.L.M.N.T}$$$$V2.0; N-terminus assumed
SMILES: CSCC[C@H](NC(=O)[C@H](CC(C)C)NC(=O)[C@H](Cc1c[nH]c2ccccc12)NC(=O)[C@H](CCC(N)=O)NC(=O)[C@@H](NC(=O)[C@H](Cc1ccccc1)NC(=O)[C@H](CC(=O)O)NC(=O)[C@H](CCC(N)=O)NC(=O)[C@H](C)NC(=O)[C@H](CCCNC(=N)N)NC(=O)[C@H](CCCNC(=N)N)NC(=O)[C@H](CO)NC(=O)[C@H](CC(=O)O)NC(=O)[C@H](CC(C)C)NC(=O)[C@H](Cc1ccc(O)cc1)NC(=O)[C@H](CCCCN)NC(=O)[C@H](CO)NC(=O)[C@H](Cc1ccc(O)cc1)NC(=O)[C@H](CC(=O)O)NC(=O)[C@H](CO)NC(=O)[C@@H](NC(=O)[C@@H](O)Cc1ccccc1)[C@@H](C)O)C(C)C)C(=O)N[C@@H](CC(N)=O)C(=O)N[C@H](C(=O)O)[C@@H](C)O
The molecule B3 had a half-inhibitory concentration (IC50) in assay [3] of 15.5 nM. Besides, the “IC50(nM) (cAMP, inhibit Glucagon) 0.1 nM or 0.2 nM” value in assay [4] came out at 13.2 nM.

B4: [PLA6, D9]Glucagon(aa6-29)-NH2 (peptide)
peptide: XTSDYSKYLDSRRAQDFVQWLMNT
HELM: PEPTIDE1{[O=C([C@@H](O)Cc1ccccc1)[*:2]].T.S.D.Y.S.K.Y.L.D.S.R.R.A.Q.D.F.V.Q.W.L.M.N.T.[am]}$$$$V2.0; N-terminus assumed
SMILES: CSCC[C@H](NC(=O)[C@H](CC(C)C)NC(=O)[C@H](Cc1c[nH]c2ccccc12)NC(=O)[C@H](CCC(N)=O)NC(=O)[C@@H](NC(=O)[C@H](Cc1ccccc1)NC(=O)[C@H](CC(=O)O)NC(=O)[C@H](CCC(N)=O)NC(=O)[C@H](C)NC(=O)[C@H](CCCNC(=N)N)NC(=O)[C@H](CCCNC(=N)N)NC(=O)[C@H](CO)NC(=O)[C@H](CC(=O)O)NC(=O)[C@H](CC(C)C)NC(=O)[C@H](Cc1ccc(O)cc1)NC(=O)[C@H](CCCCN)NC(=O)[C@H](CO)NC(=O)[C@H](Cc1ccc(O)cc1)NC(=O)[C@H](CC(=O)O)NC(=O)[C@H](CO)NC(=O)[C@@H](NC(=O)[C@@H](O)Cc1ccccc1)[C@@H](C)O)C(C)C)C(=O)N[C@@H](CC(N)=O)C(=O)N[C@H](C(N)=O)[C@@H](C)O
Take B4: the IC50 in assay [3] was 13.8 nM. For the same molecule, the “IC50(nM) (cAMP, inhibit Glucagon) 0.1 nM or 0.2 nM” value in assay [4] was 6.9 nM.
Turning to [PhLac]TS[Abu(4-SO3H)]YSKYLDSRRAQDFVQWLMNT-NH2 [[PLA6, hCys(SO3)9]Glucagon(aa6-29)-NH2], in assay [3], the IC50 is 14.2 nM. In addition, the “IC50(nM) (cAMP, inhibit Glucagon) 0.1 nM or 0.2 nM” value in assay [4] stood at 40.2 nM.
As for SQGTFTS[Abu(4-SO3H)]YSKYLDSRRAQDFVQWLMNT-NH2 [[hCys^9(SO3H)]Glucagon(aa2-29)-NH2], the IC50 in assay [5] was found to be 13.2 nM. For the same molecule, the “cAMP IC50” value in assay [6] amounted to 147 nM.
In assay [1], SQGTFTS[NSG‑1]YSKYLDSRRAQDFVQWLMNT-NH2 (reading uncertain, also called peptide no) [[(NSG-1)^9]Glucagon(aa2-29)-NH2] came in with an IC50 of 983 nM. In other words, the sub-micromolar range.
SQGTFTSXYSKYLDSRRAQDFVQWLMNT (homoglutamic acid at position 9; C-terminal amide, also called peptide no) [[hGlu^9]Glucagon(aa2-29)-NH2]: the IC50 in assay [1] worked out at 8.1 nM.

B5: [desHis^1, hCys^9(SO3^-), Phe^25, Leu^27]Glucagon-NH2 (peptide)
peptide: SQGTFTSXYSKYLDSRRAQDFVQFLLNT
HELM: PEPTIDE1{S.Q.G.T.F.T.S.[O=C([C@H](CCS(=O)(=O)O)N[*:1])[*:2]].Y.S.K.Y.L.D.S.R.R.A.Q.D.F.V.Q.F.L.L.N.T.[am]}$$$$V2.0; N-terminus assumed
SMILES: CC(C)C[C@H](NC(=O)[C@H](Cc1ccc(O)cc1)NC(=O)[C@H](CCCCN)NC(=O)[C@H](CO)NC(=O)[C@H](Cc1ccc(O)cc1)NC(=O)[C@H](CCS(=O)(=O)O)NC(=O)[C@H](CO)NC(=O)[C@@H](NC(=O)[C@H](Cc1ccccc1)NC(=O)[C@@H](NC(=O)CNC(=O)[C@H](CCC(N)=O)NC(=O)[C@@H](N)CO)[C@@H](C)O)[C@@H](C)O)C(=O)N[C@@H](CC(=O)O)C(=O)N[C@@H](CO)C(=O)N[C@@H](CCCNC(=N)N)C(=O)N[C@@H](CCCNC(=N)N)C(=O)N[C@@H](C)C(=O)N[C@@H](CCC(N)=O)C(=O)N[C@@H](CC(=O)O)C(=O)N[C@@H](Cc1ccccc1)C(=O)N[C@H](C(=O)N[C@@H](CCC(N)=O)C(=O)N[C@@H](Cc1ccccc1)C(=O)N[C@@H](CC(C)C)C(=O)N[C@@H](CC(C)C)C(=O)N[C@@H](CC(N)=O)C(=O)N[C@H](C(N)=O)[C@@H](C)O)C(C)C
notes: also called Cmpd
In turn, B5 gave an IC50 in assay [7] of 13.9 nM. In assay [8], the “cAMP Induction EC50” value was found to be 430 nM.

B6: [desHis^1, desPhe^6, hCys^9(SO3^-), Phe^25, Leu^27]Glucagon-NH2 (peptide)
peptide: SQGTTSXYSKYLDSRRAQDFVQFLLNT
HELM: PEPTIDE1{S.Q.G.T.T.S.[O=C([C@H](CCS(=O)(=O)O)N[*:1])[*:2]].Y.S.K.Y.L.D.S.R.R.A.Q.D.F.V.Q.F.L.L.N.T.[am]}$$$$V2.0; N-terminus assumed
SMILES: CC(C)C[C@H](NC(=O)[C@H](Cc1ccc(O)cc1)NC(=O)[C@H](CCCCN)NC(=O)[C@H](CO)NC(=O)[C@H](Cc1ccc(O)cc1)NC(=O)[C@H](CCS(=O)(=O)O)NC(=O)[C@H](CO)NC(=O)[C@@H](NC(=O)[C@@H](NC(=O)CNC(=O)[C@H](CCC(N)=O)NC(=O)[C@@H](N)CO)[C@@H](C)O)[C@@H](C)O)C(=O)N[C@@H](CC(=O)O)C(=O)N[C@@H](CO)C(=O)N[C@@H](CCCNC(=N)N)C(=O)N[C@@H](CCCNC(=N)N)C(=O)N[C@@H](C)C(=O)N[C@@H](CCC(N)=O)C(=O)N[C@@H](CC(=O)O)C(=O)N[C@@H](Cc1ccccc1)C(=O)N[C@H](C(=O)N[C@@H](CCC(N)=O)C(=O)N[C@@H](Cc1ccccc1)C(=O)N[C@@H](CC(C)C)C(=O)N[C@@H](CC(C)C)C(=O)N[C@@H](CC(N)=O)C(=O)N[C@H](C(N)=O)[C@@H](C)O)C(C)C
notes: also called Cmpd
Regarding B6, the IC50 in assay [7] was 53.3 nM. In assay [8], the “cAMP Induction EC50” value worked out at 3210 nM and the “cAMP Inhibition IC50” value worked out at 9220 nM.

For orientation: IC50 means the point on the concentration scale where inhibition reaches its midpoint. A low value points to inhibition by little substance.

(Values after patent US20120322725A1 (INDIANA UNIVERSITY RESEARCH AND TECHNOLOGY, published 2012).)
